Source: paper PMC9482650, “Quantitative fragmentomics allow affinity mapping of interactomes” (Nature Communications, 2022)

How the values were obtained:
Experiment in all cases: holdup assay
Parameters in all cases: key: below the threshold = too weak to quantify, mostly under pKd 3.1 to 4
Conditions in all cases: plain residues with an end cap or a label only (N-terminal biotin on a linker: ttds)
PDZD2_5, O15018 = biological target: T1, PDZD2_5, O15018
T1 sequence (O15018 2617-2716, limits assumed, looked up): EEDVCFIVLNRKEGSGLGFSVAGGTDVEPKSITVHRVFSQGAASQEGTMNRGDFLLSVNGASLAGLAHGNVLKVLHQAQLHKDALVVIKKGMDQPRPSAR

RGS12, O14924 = biological target: T2, RGS12, O14924
T2 sequence (O14924 17-108, limits assumed, looked up): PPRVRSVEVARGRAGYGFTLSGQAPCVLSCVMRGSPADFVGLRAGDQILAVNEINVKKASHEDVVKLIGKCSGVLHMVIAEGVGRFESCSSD

MAGI3_6, Q5TCQ9 = biological target: MAGI3_6, Q5TCQ9
PDZD11, Q5EBL8 = biological target: T3, PDZD11, Q5EBL8
T3 sequence (Q5EBL8 42-139, limits assumed, looked up): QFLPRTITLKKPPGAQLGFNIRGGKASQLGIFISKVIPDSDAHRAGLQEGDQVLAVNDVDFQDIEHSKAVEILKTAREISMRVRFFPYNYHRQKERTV

Inadl_5, Q8NI35 = biological target: Inadl_5, Q8NI35
LMO7, Q8WWI1 = biological target: LMO7, Q8WWI1
PDZD2_4, O15018 = biological target: T4, PDZD2_4, O15018
T4 sequence (O15018 723-823, limits assumed, looked up): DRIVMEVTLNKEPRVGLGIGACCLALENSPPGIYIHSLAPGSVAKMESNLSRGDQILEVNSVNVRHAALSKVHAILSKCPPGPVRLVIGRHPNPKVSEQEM

PDZD9, Q8IXQ8 = biological target: PDZD9, Q8IXQ8
MAGI2_3, Q86UL8 = biological target: MAGI2_3, Q86UL8
RIMS2, Q9UQ26 = biological target: RIMS2, Q9UQ26
NHERF3_2, Q5T2W1 = biological target: T5, NHERF3_2, Q5T2W1
T5 sequence (Q5T2W1 129-225, limits assumed, looked up): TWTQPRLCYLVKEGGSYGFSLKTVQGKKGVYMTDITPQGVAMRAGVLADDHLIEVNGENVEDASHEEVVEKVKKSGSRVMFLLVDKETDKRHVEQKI

TJP1_1, Q07157 = biological target: TJP1_1, Q07157
SNTB2, Q13425 = biological target: T6, SNTB2, Q13425
T6 sequence (Q13425 110-208, limits assumed, looked up): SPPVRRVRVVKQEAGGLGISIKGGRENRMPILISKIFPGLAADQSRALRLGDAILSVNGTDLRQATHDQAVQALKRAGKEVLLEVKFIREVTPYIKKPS

PDZD2_3, O15018 = biological target: T7, PDZD2_3, O15018
T7 sequence (O15018 581-682, limits assumed, looked up): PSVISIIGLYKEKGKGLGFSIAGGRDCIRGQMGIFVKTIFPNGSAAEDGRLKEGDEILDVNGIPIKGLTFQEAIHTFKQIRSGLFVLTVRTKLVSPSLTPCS

MLLT4, P55196 = biological target: T8, MLLT4, P55196
T8 sequence (P55196 1002-1103, limits assumed, looked up): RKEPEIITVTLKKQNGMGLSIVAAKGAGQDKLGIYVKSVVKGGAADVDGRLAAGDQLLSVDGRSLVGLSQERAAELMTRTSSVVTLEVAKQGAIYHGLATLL

SYNPO2L, Q9H987 = biological target: T9, SYNPO2L, Q9H987
T9 sequence (Q9H987 1-98, limits assumed, looked up): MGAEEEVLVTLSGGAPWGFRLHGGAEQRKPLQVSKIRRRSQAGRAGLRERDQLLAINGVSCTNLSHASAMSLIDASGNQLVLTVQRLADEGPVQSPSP

MAGI1_6, Q96QZ7 = biological target: MAGI1_6, Q96QZ7
AHNAK2, Q8IVF2 = biological target: AHNAK2, Q8IVF2
SHANK3, Q9BYB0 = biological target: T10, SHANK3, Q9BYB0
T10 sequence (Q9BYB0 641-750, limits assumed, looked up): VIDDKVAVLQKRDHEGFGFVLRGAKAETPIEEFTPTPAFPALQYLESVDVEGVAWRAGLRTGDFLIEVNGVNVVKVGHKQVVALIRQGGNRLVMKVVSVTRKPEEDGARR

PDZD2_6, O15018 = biological target: T11, PDZD2_6, O15018
T11 sequence (O15018 2745-2839, limits assumed, looked up): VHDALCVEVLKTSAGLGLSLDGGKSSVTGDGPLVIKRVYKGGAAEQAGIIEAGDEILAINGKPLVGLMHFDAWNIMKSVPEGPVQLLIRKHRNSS

CARD14, Q9BXL6 = biological target: CARD14, Q9BXL6
MPP5, Q8N3R9 = biological target: T12, MPP5, Q8N3R9
T12 sequence (Q8N3R9 251-346, limits assumed, looked up): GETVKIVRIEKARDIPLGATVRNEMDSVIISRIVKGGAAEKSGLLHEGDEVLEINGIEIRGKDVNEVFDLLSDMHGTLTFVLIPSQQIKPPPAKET

SNX27, Q96L92 = biological target: SNX27, Q96L92
PDZD8, Q8NEN9 = biological target: T13, PDZD8, Q8NEN9
T13 sequence (Q8NEN9 361-459, limits assumed, looked up): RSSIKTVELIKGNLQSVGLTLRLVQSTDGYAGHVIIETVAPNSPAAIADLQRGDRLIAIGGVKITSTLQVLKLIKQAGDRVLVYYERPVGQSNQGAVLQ

MAGI3_6, Q5TCQ9, sequence (Q5TCQ9 1014-1103): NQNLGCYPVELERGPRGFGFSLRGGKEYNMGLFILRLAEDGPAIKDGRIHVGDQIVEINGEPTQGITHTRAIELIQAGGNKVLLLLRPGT
LMO7, Q8WWI1, sequence (Q8WWI1 1037-1138): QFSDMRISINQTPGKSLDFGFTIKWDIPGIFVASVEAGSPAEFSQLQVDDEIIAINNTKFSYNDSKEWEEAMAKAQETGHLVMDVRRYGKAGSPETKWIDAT
MAGI2_3, Q86UL8, sequence (Q86UL8 600-682): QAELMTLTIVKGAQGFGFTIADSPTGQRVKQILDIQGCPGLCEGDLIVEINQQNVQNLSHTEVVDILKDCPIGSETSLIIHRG
AHNAK2, Q8IVF2, sequence (Q8IVF2 108-193): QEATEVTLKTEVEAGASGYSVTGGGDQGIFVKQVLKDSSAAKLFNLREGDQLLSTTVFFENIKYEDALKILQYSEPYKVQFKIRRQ
RIMS2, Q9UQ26, sequence (Q9UQ26 637-758): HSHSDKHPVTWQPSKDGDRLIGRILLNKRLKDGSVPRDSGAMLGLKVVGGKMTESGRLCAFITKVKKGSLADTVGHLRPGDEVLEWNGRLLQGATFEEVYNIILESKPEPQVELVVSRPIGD
TJP1_1, Q07157, sequence (Q07157 18-120): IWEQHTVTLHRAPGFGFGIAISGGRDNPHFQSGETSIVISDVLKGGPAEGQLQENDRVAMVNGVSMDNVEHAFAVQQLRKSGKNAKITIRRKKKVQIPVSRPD
PDZD9, Q8IXQ8, sequence (Q8IXQ8 23-120): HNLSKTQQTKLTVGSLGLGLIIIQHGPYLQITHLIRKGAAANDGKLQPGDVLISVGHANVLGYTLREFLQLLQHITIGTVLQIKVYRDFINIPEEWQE
Inadl_5, Q8NI35, sequence (Q8NI35 673-780): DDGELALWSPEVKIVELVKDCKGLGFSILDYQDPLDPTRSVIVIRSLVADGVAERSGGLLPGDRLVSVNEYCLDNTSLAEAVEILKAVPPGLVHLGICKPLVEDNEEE
MAGI1_6, Q96QZ7, sequence (Q96QZ7 1146-1238): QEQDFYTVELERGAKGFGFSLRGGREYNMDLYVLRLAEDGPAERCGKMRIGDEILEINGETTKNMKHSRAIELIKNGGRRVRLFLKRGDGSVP
CARD14, Q9BXL6, sequence (Q9BXL6 558-663): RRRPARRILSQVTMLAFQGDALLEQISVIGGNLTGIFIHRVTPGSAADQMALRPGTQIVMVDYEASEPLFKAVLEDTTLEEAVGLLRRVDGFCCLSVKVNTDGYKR

Binder | pKd (PDZD2_5, O15018) | pKd (RGS12, O14924) | pKd (MAGI3_6, Q5TCQ9) | pKd (PDZD11, Q5EBL8) | pKd (Inadl_5, Q8NI35) | pKd (LMO7, Q8WWI1) | pKd (PDZD2_4, O15018) | pKd (PDZD9, Q8IXQ8) | pKd (MAGI2_3, Q86UL8) | pKd (RIMS2, Q9UQ26) | pKd (NHERF3_2, Q5T2W1) | pKd (TJP1_1, Q07157) | pKd (SNTB2, Q13425) | pKd (PDZD2_3, O15018) | pKd (MLLT4, P55196) | pKd (SYNPO2L, Q9H987) | pKd (MAGI1_6, Q96QZ7) | pKd (AHNAK2, Q8IVF2) | pKd (SHANK3, Q9BYB0) | pKd (PDZD2_6, O15018) | further results
STLTIFETAL [ABCC4, O15439] | below the threshold | below the threshold | 4.21 | 4.46 | below the threshold | below the threshold | below the threshold | below the threshold | below the threshold | below the threshold | 4.06 | below the threshold | 4.49 | 4.32 | below the threshold | below the threshold | 4.22 | below the threshold | 5.54 | below the threshold | pKd (CARD14, Q9BXL6): below the threshold; pKd (MPP5, Q8N3R9): below the threshold; pKd (SNX27, Q96L92): 5.85; pKd (PDZD8, Q8NEN9): below the threshold
PKTPPTDTSV [KIR3DL3, Q8N743] | below the threshold | below the threshold | below the threshold | 4.3 | below the threshold | below the threshold | below the threshold | below the threshold | below the threshold | below the threshold | below the threshold | below the threshold | below the threshold | 4.08 | below the threshold | below the threshold | 4.22 | below the threshold | below the threshold | below the threshold | pKd (CARD14, Q9BXL6): below the threshold; pKd (MPP5, Q8N3R9): below the threshold; pKd (SNX27, Q96L92): 4.28; pKd (PDZD8, Q8NEN9): 4.36
QSARYRDTEL [TJP2, Q9UDY2] | below the threshold | below the threshold | 4.72 | below the threshold | below the threshold | below the threshold | below the threshold | below the threshold | below the threshold | below the threshold | below the threshold | below the threshold | below the threshold | below the threshold | below the threshold | below the threshold | 4.71 | below the threshold | below the threshold | below the threshold | pKd (CARD14, Q9BXL6): below the threshold; pKd (MPP5, Q8N3R9): below the threshold; pKd (SNX27, Q96L92): 4.69; pKd (PDZD8, Q8NEN9): below the threshold
SSRTRRETQL [HPV16-E6, P03126] | below the threshold | 4.37 | below the threshold | below the threshold | below the threshold | 4.15 | below the threshold | 4.06 | 3.67 | below the threshold | below the threshold | 4.22 | 4.12 | below the threshold | below the threshold | below the threshold | below the threshold | below the threshold | below the threshold | below the threshold | pKd (CARD14, Q9BXL6): below the threshold; pKd (MPP5, Q8N3R9): below the threshold; pKd (SNX27, Q96L92): 4.91; pKd (PDZD8, Q8NEN9): below the threshold
